Earlier results on one substance are cited in publication PMC8535836.

The data set has as its target Neuroplastin Np65 Ig1 (Rattus norvegicus) (UniProt P97546). The data set can be described thus: Surface Plasmon Resonance.

“Neuroplastin Np65 Ig1 (from UniProt P97546)”: the dissociation constant Kd was 0.52 µM.
